Results published in US12630600B2 (MEDIMMUNE LIMITED, priority 2022, dated 2026).
Starred links: 1 amine or outer side, 2 acyl side, 3 side chain; linkers in the order of their positions; H or OH if unused. Non-standard residues stand in square brackets, D forms with d. Groups on a side chain read outwards from the residue. No end group written: not given here. *: point of attachment. C20 diacid = O=C(O)CCCCCCCCCCCCCCCCCCC(=O)*; C18 diacid = O=C(O)CCCCCCCCCCCCCCCCC(=O)*; γGlu = O=C(O)[C@H](CCC(=O)[*:2])N[*:1]; αMeF = C[C@](N)(Cc1ccccc1)C(=O)O; AEEA = NCCOCCOCC(=O)O; Aib = CC(C)(N)C(=O)O

B1: Peptide 340 (peptide)
peptide: H[Aib]QGTFTSDYSK[αMeF]LDSRRAK([γGlu-C18 diacid])DFVQWLL[Aib]E-OH
modifications: N-terminus assumed
SMILES: CC(C)C[C@H](NC(=O)[C@H](Cc1c[nH]c2ccccc12)NC(=O)[C@H](CCC(N)=O)NC(=O)[C@@H](NC(=O)[C@H](Cc1ccccc1)NC(=O)[C@H](CC(=O)O)NC(=O)[C@H](CCCCNC(=O)CC[C@H](NC(=O)CCCCCCCCCCCCCCCCC(=O)O)C(=O)O)NC(=O)[C@H](C)NC(=O)[C@H](CCCNC(=N)N)NC(=O)[C@H](CCCNC(=N)N)NC(=O)[C@H](CO)NC(=O)[C@H](CC(=O)O)NC(=O)[C@H](CC(C)C)NC(=O)[C@](C)(Cc1ccccc1)NC(=O)[C@H](CCCCN)NC(=O)[C@H](CO)NC(=O)[C@H](Cc1ccc(O)cc1)NC(=O)[C@H](CC(=O)O)NC(=O)[C@H](CO)NC(=O)[C@@H](NC(=O)[C@H](Cc1ccccc1)NC(=O)[C@@H](NC(=O)CNC(=O)[C@H](CCC(N)=O)NC(=O)C(C)(C)NC(=O)[C@@H](N)Cc1c[nH]cn1)[C@@H](C)O)[C@@H](C)O)C(C)C)C(=O)N[C@@H](CC(C)C)C(=O)NC(C)(C)C(=O)N[C@@H](CCC(=O)O)C(=O)O
B2: Peptide 342 (peptide)
peptide: H[Aib]QGTFTSDYSK[αMeF]LDSRRAK([γGlu-C18 diacid])DFVQWLLE[Aib]T-OH
modifications: N-terminus assumed
SMILES: CC(C)C[C@H](NC(=O)[C@H](Cc1c[nH]c2ccccc12)NC(=O)[C@H](CCC(N)=O)NC(=O)[C@@H](NC(=O)[C@H](Cc1ccccc1)NC(=O)[C@H](CC(=O)O)NC(=O)[C@H](CCCCNC(=O)CC[C@H](NC(=O)CCCCCCCCCCCCCCCCC(=O)O)C(=O)O)NC(=O)[C@H](C)NC(=O)[C@H](CCCNC(=N)N)NC(=O)[C@H](CCCNC(=N)N)NC(=O)[C@H](CO)NC(=O)[C@H](CC(=O)O)NC(=O)[C@H](CC(C)C)NC(=O)[C@](C)(Cc1ccccc1)NC(=O)[C@H](CCCCN)NC(=O)[C@H](CO)NC(=O)[C@H](Cc1ccc(O)cc1)NC(=O)[C@H](CC(=O)O)NC(=O)[C@H](CO)NC(=O)[C@@H](NC(=O)[C@H](Cc1ccccc1)NC(=O)[C@@H](NC(=O)CNC(=O)[C@H](CCC(N)=O)NC(=O)C(C)(C)NC(=O)[C@@H](N)Cc1c[nH]cn1)[C@@H](C)O)[C@@H](C)O)C(C)C)C(=O)N[C@@H](CC(C)C)C(=O)N[C@@H](CCC(=O)O)C(=O)NC(C)(C)C(=O)N[C@H](C(=O)O)[C@@H](C)O
B3: Peptide 522 (peptide)
peptide: H[Aib]QGTFTSDVSK[αMeF]LDSERAK([AEEA-AEEA-γGlu-C18 diacid])DFVAWLEAGG-OH
modifications: N-terminus assumed
SMILES: CC(C)C[C@H](NC(=O)[C@H](Cc1c[nH]c2ccccc12)NC(=O)[C@H](C)NC(=O)[C@@H](NC(=O)[C@H](Cc1ccccc1)NC(=O)[C@H](CC(=O)O)NC(=O)[C@H](CCCCNC(=O)COCCOCCNC(=O)COCCOCCNC(=O)CC[C@H](NC(=O)CCCCCCCCCCCCCCCCC(=O)O)C(=O)O)NC(=O)[C@H](C)NC(=O)[C@H](CCCNC(=N)N)NC(=O)[C@H](CCC(=O)O)NC(=O)[C@H](CO)NC(=O)[C@H](CC(=O)O)NC(=O)[C@H](CC(C)C)NC(=O)[C@](C)(Cc1ccccc1)NC(=O)[C@H](CCCCN)NC(=O)[C@H](CO)NC(=O)[C@@H](NC(=O)[C@H](CC(=O)O)NC(=O)[C@H](CO)NC(=O)[C@@H](NC(=O)[C@H](Cc1ccccc1)NC(=O)[C@@H](NC(=O)CNC(=O)[C@H](CCC(N)=O)NC(=O)C(C)(C)NC(=O)[C@@H](N)Cc1c[nH]cn1)[C@@H](C)O)[C@@H](C)O)C(C)C)C(C)C)C(=O)N[C@@H](CCC(=O)O)C(=O)N[C@@H](C)C(=O)NCC(=O)NCC(=O)O
B4: Peptide 523 (peptide)
peptide: H[Aib]QGTFTSDVSK[αMeF]LDSERAK([AEEA-AEEA-γGlu-C20 diacid])DFVAWLEAGG-OH
modifications: N-terminus assumed
SMILES: CC(C)C[C@H](NC(=O)[C@H](Cc1c[nH]c2ccccc12)NC(=O)[C@H](C)NC(=O)[C@@H](NC(=O)[C@H](Cc1ccccc1)NC(=O)[C@H](CC(=O)O)NC(=O)[C@H](CCCCNC(=O)COCCOCCNC(=O)COCCOCCNC(=O)CC[C@H](NC(=O)CCCCCCCCCCCCCCCCCCC(=O)O)C(=O)O)NC(=O)[C@H](C)NC(=O)[C@H](CCCNC(=N)N)NC(=O)[C@H](CCC(=O)O)NC(=O)[C@H](CO)NC(=O)[C@H](CC(=O)O)NC(=O)[C@H](CC(C)C)NC(=O)[C@](C)(Cc1ccccc1)NC(=O)[C@H](CCCCN)NC(=O)[C@H](CO)NC(=O)[C@@H](NC(=O)[C@H](CC(=O)O)NC(=O)[C@H](CO)NC(=O)[C@@H](NC(=O)[C@H](Cc1ccccc1)NC(=O)[C@@H](NC(=O)CNC(=O)[C@H](CCC(N)=O)NC(=O)C(C)(C)NC(=O)[C@@H](N)Cc1c[nH]cn1)[C@@H](C)O)[C@@H](C)O)C(C)C)C(C)C)C(=O)N[C@@H](CCC(=O)O)C(=O)N[C@@H](C)C(=O)NCC(=O)NCC(=O)O
B5: Peptide 524 (peptide)
peptide: H[Aib]QGTFTSDVSE[αMeF]LDSERAK([AEEA-AEEA-γGlu-C18 diacid])DFVRWLEAGG-OH
modifications: N-terminus assumed
SMILES: CC(C)C[C@H](NC(=O)[C@H](Cc1c[nH]c2ccccc12)NC(=O)[C@H](CCCNC(=N)N)NC(=O)[C@@H](NC(=O)[C@H](Cc1ccccc1)NC(=O)[C@H](CC(=O)O)NC(=O)[C@H](CCCCNC(=O)COCCOCCNC(=O)COCCOCCNC(=O)CC[C@H](NC(=O)CCCCCCCCCCCCCCCCC(=O)O)C(=O)O)NC(=O)[C@H](C)NC(=O)[C@H](CCCNC(=N)N)NC(=O)[C@H](CCC(=O)O)NC(=O)[C@H](CO)NC(=O)[C@H](CC(=O)O)NC(=O)[C@H](CC(C)C)NC(=O)[C@](C)(Cc1ccccc1)NC(=O)[C@H](CCC(=O)O)NC(=O)[C@H](CO)NC(=O)[C@@H](NC(=O)[C@H](CC(=O)O)NC(=O)[C@H](CO)NC(=O)[C@@H](NC(=O)[C@H](Cc1ccccc1)NC(=O)[C@@H](NC(=O)CNC(=O)[C@H](CCC(N)=O)NC(=O)C(C)(C)NC(=O)[C@@H](N)Cc1c[nH]cn1)[C@@H](C)O)[C@@H](C)O)C(C)C)C(C)C)C(=O)N[C@@H](CCC(=O)O)C(=O)N[C@@H](C)C(=O)NCC(=O)NCC(=O)O
B6: Peptide 525 (peptide)
peptide: H[Aib]QGTFTSDVSK[αMeF]LDSERAK([AEEA-AEEA-γGlu-C18 diacid])DFVQWLEA[Aib]G-OH
modifications: N-terminus assumed
SMILES: CC(C)C[C@H](NC(=O)[C@H](Cc1c[nH]c2ccccc12)NC(=O)[C@H](CCC(N)=O)NC(=O)[C@@H](NC(=O)[C@H](Cc1ccccc1)NC(=O)[C@H](CC(=O)O)NC(=O)[C@H](CCCCNC(=O)COCCOCCNC(=O)COCCOCCNC(=O)CC[C@H](NC(=O)CCCCCCCCCCCCCCCCC(=O)O)C(=O)O)NC(=O)[C@H](C)NC(=O)[C@H](CCCNC(=N)N)NC(=O)[C@H](CCC(=O)O)NC(=O)[C@H](CO)NC(=O)[C@H](CC(=O)O)NC(=O)[C@H](CC(C)C)NC(=O)[C@](C)(Cc1ccccc1)NC(=O)[C@H](CCCCN)NC(=O)[C@H](CO)NC(=O)[C@@H](NC(=O)[C@H](CC(=O)O)NC(=O)[C@H](CO)NC(=O)[C@@H](NC(=O)[C@H](Cc1ccccc1)NC(=O)[C@@H](NC(=O)CNC(=O)[C@H](CCC(N)=O)NC(=O)C(C)(C)NC(=O)[C@@H](N)Cc1c[nH]cn1)[C@@H](C)O)[C@@H](C)O)C(C)C)C(C)C)C(=O)N[C@@H](CCC(=O)O)C(=O)N[C@@H](C)C(=O)NC(C)(C)C(=O)NCC(=O)O
B7: Peptide 526 (peptide)
peptide: H[Aib]QGTFTSDVSK[αMeF]LDSERAK([AEEA-AEEA-γGlu-C18 diacid])DFVAWLEA[Aib]G-OH
modifications: N-terminus assumed
SMILES: CC(C)C[C@H](NC(=O)[C@H](Cc1c[nH]c2ccccc12)NC(=O)[C@H](C)NC(=O)[C@@H](NC(=O)[C@H](Cc1ccccc1)NC(=O)[C@H](CC(=O)O)NC(=O)[C@H](CCCCNC(=O)COCCOCCNC(=O)COCCOCCNC(=O)CC[C@H](NC(=O)CCCCCCCCCCCCCCCCC(=O)O)C(=O)O)NC(=O)[C@H](C)NC(=O)[C@H](CCCNC(=N)N)NC(=O)[C@H](CCC(=O)O)NC(=O)[C@H](CO)NC(=O)[C@H](CC(=O)O)NC(=O)[C@H](CC(C)C)NC(=O)[C@](C)(Cc1ccccc1)NC(=O)[C@H](CCCCN)NC(=O)[C@H](CO)NC(=O)[C@@H](NC(=O)[C@H](CC(=O)O)NC(=O)[C@H](CO)NC(=O)[C@@H](NC(=O)[C@H](Cc1ccccc1)NC(=O)[C@@H](NC(=O)CNC(=O)[C@H](CCC(N)=O)NC(=O)C(C)(C)NC(=O)[C@@H](N)Cc1c[nH]cn1)[C@@H](C)O)[C@@H](C)O)C(C)C)C(C)C)C(=O)N[C@@H](CCC(=O)O)C(=O)N[C@@H](C)C(=O)NC(C)(C)C(=O)NCC(=O)O

Legend:
human GLP-1 receptor = human GLP-1 receptor (human, UniProt P43220); assay: cell-based or functional assay
human glucagon receptor = human glucagon receptor (human, UniProt P47871); assay: cell-based or functional assay

Binder	hGLP-1R EC50 (pM) (human GLP-1 receptor)	hGluc-R EC50 (pM) (human glucagon receptor)
B1	312 pM	94.7 pM
B2	220 pM	4830 pM
B3	508 pM	6360 pM
B4	615 pM	> 24700 pM
B5	366 pM	> 24400 pM
B6	177 pM	2450 pM
B7	194 pM	690 pM
